Data reported in patent US20230279088A1 (NATIONAL RESEARCH COUNCIL OF CANADA, published 2023).

Target: T1, Aβ1-42 oligomers (Aβ1-42 preparation consisting predominantly of higher oligomers) (UniProt P05067 672-713)
T1 construct: domain: Aβ1-42; Oligomeric aggregate; also called Aβ oligomers; Aβ-oligomer
Test: ELISA: ABP immobilized on the plate, exposed to Aβ, bound Aβ detected with 6E10 or 4G8
Protocol: ELISA: Aβ-binding assays were carried out as described by Chakravarthy et al (2013). Maxisorp 96-well ELISA plates (Nunc) were coated with (100-500 ng/well) either free ABP (synthetic) or various FC5-ABP constructs overnight at 4° C. in PBS. The wells were blocked with 1% BSA in TBS-T for 30 min and then incubated with Af31-42 preparations consisting predominantly of either monomer and dimers (Mo) or higher oligomers (010 in TBS-T at RT for 45 min with gentle agitation. Following three TBS-T washes, bound Aβ was detected by incubating HRP-conjugated Aβ-specific antibody (6E10 or 4G8) for 90 min at RT in TBS-T. The bound antibody was detected with SureBlueTM TMB reagent kit (KPL) by colorimetric measurement at 450 nm according to manufacturer's instructions.
A Coomassie blue stained gel after separation of FC5 fusion molecules by SDS-PAGE (NR-non-reducing and R-reducing conditions) indicating successful production of recombinant fusion molecule is shown in FIG. 2A. Free or fused ABP was immobilized on ELISA plate by coating samples in phosphate buffered saline (PBS) overnight at 4° C. and exposed to Aβ preparations as described by Chakravarthy et al., 2013. Bound Aβ was detected with Aβ-specific antibody 6E10 or 4G8 (Chakravarthy et al., 2013). […] Bound Aβ was detected with specific antibody as above. […]

T1 sequence (P05067 672-713 limits assumed): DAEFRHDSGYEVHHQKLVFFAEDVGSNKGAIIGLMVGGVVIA

**Q.** Does KTFKTRKASAQASLASKDKTPKSKSKKRNSTQLKSRVKNI (also called P4-5 peptide (ABP)) [free ABP (synthetic amyloid-binding peptide)] bind?
**A.** binds
